US20250289849A1, “PEPTIDE TO TREAT ALPHA-SYNUCLEIN AMYLOID BASED DISORDERS” (COUNCIL OF SCIENTIFIC & INDUSTRIAL RESEARCH, priority 2022, published 2025)
Where no end group is shown, it is not given here.

Molecular target: T1, human wild-type α-synuclein (Homo sapiens, UniProt P37840)
T1 construct: made in house; host or cells: E. coli Rosetta(DE3), pT7-7 based expression vector
Assay: In vitro fibrillation assay (Thioflavin T fluorescence)
Type: biochemical
Settings: for inhibition of α-synuclein fibrillation (reduction in ThT fluorescence, in words): FIG. 3, α-synuclein 400 μM, equimolar peptide, 37° C., observed upto 6 hr; for increase in α-synuclein fibrillation (fluorescence intensity), compared to penetratin: FIG. 4A, zoomed Y-axis of FIG. 3 data; for normalized ratio of ThT fluorescence amplitude at 5 h versus 0 h, compared with SEQ.ID.-4: FIG. 4B
Protocol: FIG. 1. […] The α-synuclein fibrillation was monitored using ThioflavinT (ThT), a dye that specifically binds to amyloids. The binding of ThT results in increase of its fluorescence intensity at 482 nm. Purified α-synuclein (400 μM) was incubated at 37° C. with shaking in the presence and absence of equimolar concentration of indicated peptides. Amyloid formation was determined by monitoring ThT fluorescence at different time intervals.
FIG. 3. […] The α-synuclein fibrillation was monitored using ThioflavinT (ThT) dye, which specifically binds to amyloids, with its subsequent increase in fluorescence intensity recorded at 482 nm. The purified α-synuclein (400 μM) was incubated at 37° C. with shaking, in the presence and absence of equimolar concentration of indicated peptides. Amyloid formation was determined by monitoring ThT fluorescence at different time intervals.
FIG. 4A. The inhibition of α-synuclein fibrillation in the presence of different peptides as indicated by SEQ.IDs. The data is same as in FIG. 3A except that only the enhanced (zoomed) Y-axis for α-synuclein fibrillation in the presence of peptides is shown for clarity.
FIG. 4B. The ratio of the amplitude at 5 h versus 0 h for each of the curve was calculated and normalized.
Thioflavin T (ThT) (4 mM) was added to 400 μM of purified α-synuclein with and without Cell penetrating peptides at equimolar concentration in a 96 microwell plate. The plate was incubated at 37° C. with a shaking speed of 900 rpm in linear mode in a multimode plate reader (TECAN infinite M200 PRO). Fluorescence kinetics was measured after every 15 minutes with emission wavelength of 482 nm upon excitation at 442 nm. Each experiment was repeated at least three times.

| Substance | inhibition of α-synuclein fibrillation (reduction in ThT fluorescence, in words) | increase in α-synuclein fibrillation (fluorescence intensity), compared to penetratin | normalized ratio of ThT fluorescence amplitude at 5 h versus 0 h, compared with SEQ.ID.-4 |
| --- | --- | --- | --- |
| SEQ.ID.-6: Cyclic derivative synthesized by introducing Cys residue at N-terminal and C-terminal of SEQ.ID.-4 sequence (CRQIKIWFQNRRMKWKKC; not fully specified (bridges); cysteine pairing not given here) | inhibits α-synuclein fibrillation |  |  |
| SEQ.ID.-7: shorter truncated version of SEQ.ID.-4, further cyclized (CKIWFQNRRMKC; not fully specified (bridges); also: cyclized, mode not given here) | inhibits α-synuclein fibrillation | did not allow increase in α-synuclein fibrillation | significantly better inhibitor of fibrillation than of SEQ.ID.-4 |
| SEQ.ID.-8: shorter and cyclized derivative of SEQ.ID.-4 with an additional mutation (CKIWFANRRMKC; not fully specified (bridges); also: cyclized, mode not given here) | inhibits α-synuclein fibrillation | did not allow increase in α-synuclein fibrillation | significantly better inhibitor of fibrillation than of SEQ.ID.-4 |
